Assay results taken from publication PMC11857070.

Target: Lectin-like protein 1 (Llp1), residues 23-241, without the signal peptide (Ustilago maydis)
Assay: SEC-MALS; Superdex 200 Increase 10/300, HEPES buffer, pH 7.5

Lectin-like protein 1 (Llp1), residues 23-241, without the signal peptide (from UniProt A0A0D1E6R1 23-241) (domain or fragment)
stoichiometry N: 4
